Measured values: patent US20200069794A1

Experiments:
[1] = biological target: human metapneumovirus (hMPV) fusion (F) protein (Strain: A/TN92-4) (human metapneumovirus) (UniProt Q6WB98); experiment: flow cytometry, fluorescent staining of Hela cells transfected with hMPV/hPIV3 mRNA constructs; MPE8 at 500 nM plus secondary antibody
[2] = biological target: human metapneumovirus (hMPV) fusion (F) protein (Strain: A/TN92-4) (human metapneumovirus) (UniProt Q6WB98); experiment: flow cytometry, fluorescent staining of Hela cells transfected with hMPV/hPIV3 mRNA constructs; secondary antibody only (control)

| Substance | Mean FL4-H [1] | Mean FL4-H [2] |
| --- | --- | --- |
| hMPV-F-specific antibodies MPE-8 (antibody) | 617000 |  |
| secondary antibody (staining control, 'Secondary only') |  | 2160 |
